Columns and labels:
Conditions in all cases: both partners purified
[1] = target: T1, recombinant human laminin-111 (human, UniProt P25391 18-3075; P07942 22-1786; P11047 34-1609); experiment: ELISA; plates coated with 50 nM GF or chemokine in PBS; 10 nM laminin isoform in PBS added; bound laminin detected with anti-LAMC1 or anti-LAMA3 polyclonal antibody; A450 signals greater than 0.1 taken as binding; BSA-coated wells as control
T1 construct: laminin subunit alpha-1, human; chain told by the isoform's name; laminin subunit beta-1, human; laminin subunit gamma-1, human; source: bought: BioLamina (recombinant human, >95% purity); copies: + +

[2] = target: T2, recombinant human laminin-211 (human, UniProt P24043 23-3122; P07942 22-1786; P11047 34-1609); experiment: as above
T2 construct: laminin subunit alpha-2, human; chain told by the isoform's name; laminin subunit beta-1, human; laminin subunit gamma-1, human; source: bought: BioLamina (recombinant human, >95% purity); copies: + +

[3] = target: T3, recombinant human laminin-521 (human, UniProt O15230 36-3695; P55268 33-1798; P11047 34-1609); experiment: SPR; laminin-521 immobilised by amine coupling on a C1 chip (~2000 RU); GF flown at 20 μL/min in 0.01 M HEPES pH 7.4, 0.15 M NaCl, 0.005% surfactant P20; Langmuir binding kinetics
T3 construct: laminin subunit alpha-5, human; chain told by the isoform's name; laminin subunit beta-2, human; laminin subunit gamma-1, human; also called laminin isoform-521; source: bought: BioLamina (recombinant human, >95% purity); copies: + +

[4] = target: T4, recombinant laminin LAMA3_(2928–3150) protein (human, UniProt Q16787 2928-3150); experiment: SPR; LAMA3 2928–3150 immobilised by amine coupling on a C1 chip (~1000 RU); GF flown at 20 μL/min in 0.01 M HEPES pH 7.4, 0.15 M NaCl, 0.005% surfactant P20; Langmuir binding kinetics
T4 construct: laminin subunit alpha-3, human, LG domain Ser2928-Cys3150 (linker domain and LG4 domain); also called laminin alpha 3 LG domain recombinant protein; source: HEK-293F, transfected, purified from culture medium (HisTrap, size-exclusion chromatography)
T4 sequence (looked up): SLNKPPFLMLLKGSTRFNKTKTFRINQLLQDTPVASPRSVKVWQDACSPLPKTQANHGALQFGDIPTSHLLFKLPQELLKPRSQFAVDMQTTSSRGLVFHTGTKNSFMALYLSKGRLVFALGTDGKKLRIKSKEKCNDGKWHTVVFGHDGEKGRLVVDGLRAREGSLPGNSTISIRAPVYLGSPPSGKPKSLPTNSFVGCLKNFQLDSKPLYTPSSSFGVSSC

B1: platelet-derived growth factor PDGF-BB (ligand, human, UniProt P01127 82-190, looked up)
chain: SLGSLTIAEPAMIAECKTRTEVFEISRRLIDRTNANFLVWPPCVEVQRCSGCCNNRNVQCRPTQVQLRPVQVRKIEIVRKKPIFKKATVTLEDHLACKCETVAAARPVT
notes: platelet-derived growth factor subunit B, human, bought in its mature form; a homodimer by its name; source: bought: PeproTech; produced in Escherichia coli
Question: Does B1 bind [1]?
Answer: Result: binds

Question: Does B1 bind [2]?
Answer: Result: binds

Question: And the Kd [3]?
Answer: The Kd was 24.2 nM.

Question: And the Kd [4]?
Answer: The Kd was 10.2 nM.
